{"source": "patent US9340596B2", "about": "“Fusion protein comprising tumor necrosis factor related apoptosis inducing ligand and integrin ligand and use thereof” (NANJING UNIVERSITY, priority 2007, dated 2016)", "molecules": {"B1": {"name": "RGD-L-TRAIL (C230G): TRAIL variant fused with αVβ3 and αVβ5 integrin ligands with a mutation at TRAIL's activity center causing loss of biological activity (protein)", "chain": "ACDCRGDCFCGGGGGVRERGPQRVAAHITGTRGRSNTLSSPNSKNEKALGRKINSWESSRSGHSFLSNLHLRNGELVIHEKGFYYIYSQTYFRFQEEIKENTKNDKQMVQYIYKYTSYPDPILLMKSARNSGWSKDAEYGLYSIYQGGIFELKENDRIFVSVTNEHLIDMDHEASFFGAFLVG"}}, "key": {"[1]": {"system": "human foreskin microvascular endothelial cells", "experiment": "Cell adhesion assay of human foreskin microvascular endothelial cells on protein-coated wells", "format": "cell-based", "details": "free protein added to plates coated with TRAIL variant protein", "method": "The TRAIL and its variant protein are coated on a 96-well PVC plate overnight at 4° C. The coated 96-well plate was rinsed with 0.9% physiological saline, and then blocked for 1 h at 1640 culture medium containing 2% bovine serum albumin, and then rinsed again. After the human foreskin microvascular endothelial cells were digested, washed three times with phosphate buffer and re-suspended into the complete RPMI1640 medium, it was then added to the 96-well plate coated with TRAIL and its variant (40,000 cell per well). After the cells were incubated for 1.5 hours in an incubator containing 5% carbon dioxide, they were washed three times with physiological saline to remove the non-adherent cells. The adherent cells were fixed for 30 min with phosphate buffer solution (pH 7.3) containing 4% formalin and 2% sucrose, and then stained with 0.5% crystal violet. The fixed stained cells were rinsed several times, then dissolved with […] DMSO to test the absorbance values at 540 nm. All the tests should be carried out at least three times independently."}, "[2]": {"system": "COLO-205 colon cancer cells", "experiment": "Cell apoptosis, Annexin V and PI double staining, COLO-205", "format": "cell-based", "details": "COLO-205 cells pre-incubated with RGD-L-TRAIL (C230G), then induced with RGD-L-TRAIL", "method": "After the cells treated with TRAIL and its variant were digested with trypsin, they were removed from the cultivation plate, washed twice with phosphate buffer solution, and centrifuged for 5 min at 300 g centrifugal force. The supernatants were removed, and the cells were re-suspended in 100 ul of binding buffer solution. Then, Annexin V-FITC (BD Pharmgen) was added until a final concentration of 2 μg/ml was achieved, followed by incubation at room temperature. After 10 min, 400 ul of binding buffer was added, and the cells were transferred to a flow analysis tube. 1 μg of […] (Sigma Corporation) was added to each tube. The cells were analyzed with a flow cytometer within 30 min. At least three separate tests should be carried out for each cell line."}}, "data": [{"molecule": "B1", "values": [{"measurement": "reduction by free protein of endothelial cells adhered to microplates coated with RGD-L-TRAIL (competitive test)", "setting": "[1]", "result": "significantly reduce"}, {"measurement": "effect of pre-incubation with the competitive inhibitor on RGD-L-TRAIL-induced apoptosis activity", "setting": "[2]", "result": "declined significantly"}]}]}
